T1: Spc98p with CFP on its N-terminus (of γ-TuSC:CFPSpc98p) (S. cerevisiae, UniProt P53540 1-846)
T1 sequence (looked up): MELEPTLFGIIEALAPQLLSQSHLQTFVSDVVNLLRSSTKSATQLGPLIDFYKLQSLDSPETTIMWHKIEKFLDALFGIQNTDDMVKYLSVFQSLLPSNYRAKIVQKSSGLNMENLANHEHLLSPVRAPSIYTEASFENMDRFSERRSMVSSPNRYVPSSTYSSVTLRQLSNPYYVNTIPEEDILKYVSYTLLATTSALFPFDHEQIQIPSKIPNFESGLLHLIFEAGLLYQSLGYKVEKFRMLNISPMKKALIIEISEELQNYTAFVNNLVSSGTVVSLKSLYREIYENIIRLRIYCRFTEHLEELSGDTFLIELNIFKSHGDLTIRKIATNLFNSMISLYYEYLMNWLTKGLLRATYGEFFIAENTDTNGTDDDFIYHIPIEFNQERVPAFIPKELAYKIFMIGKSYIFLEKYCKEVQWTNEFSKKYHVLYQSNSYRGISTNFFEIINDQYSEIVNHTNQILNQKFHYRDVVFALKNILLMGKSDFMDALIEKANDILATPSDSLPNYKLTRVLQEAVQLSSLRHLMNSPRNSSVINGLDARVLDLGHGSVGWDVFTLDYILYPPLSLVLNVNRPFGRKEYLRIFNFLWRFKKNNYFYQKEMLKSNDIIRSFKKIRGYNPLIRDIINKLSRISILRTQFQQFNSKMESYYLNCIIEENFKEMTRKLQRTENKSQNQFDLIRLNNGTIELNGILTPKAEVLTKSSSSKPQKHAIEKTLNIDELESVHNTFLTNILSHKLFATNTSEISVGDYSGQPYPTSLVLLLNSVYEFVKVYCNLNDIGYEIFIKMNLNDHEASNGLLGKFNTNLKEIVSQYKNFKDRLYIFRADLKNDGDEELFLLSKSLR

T2: Spc98p with CFP on its C-terminus (of γ-TuSC:Spc98pCFP) (S. cerevisiae, UniProt P53540 1-846)
T2 sequence (looked up): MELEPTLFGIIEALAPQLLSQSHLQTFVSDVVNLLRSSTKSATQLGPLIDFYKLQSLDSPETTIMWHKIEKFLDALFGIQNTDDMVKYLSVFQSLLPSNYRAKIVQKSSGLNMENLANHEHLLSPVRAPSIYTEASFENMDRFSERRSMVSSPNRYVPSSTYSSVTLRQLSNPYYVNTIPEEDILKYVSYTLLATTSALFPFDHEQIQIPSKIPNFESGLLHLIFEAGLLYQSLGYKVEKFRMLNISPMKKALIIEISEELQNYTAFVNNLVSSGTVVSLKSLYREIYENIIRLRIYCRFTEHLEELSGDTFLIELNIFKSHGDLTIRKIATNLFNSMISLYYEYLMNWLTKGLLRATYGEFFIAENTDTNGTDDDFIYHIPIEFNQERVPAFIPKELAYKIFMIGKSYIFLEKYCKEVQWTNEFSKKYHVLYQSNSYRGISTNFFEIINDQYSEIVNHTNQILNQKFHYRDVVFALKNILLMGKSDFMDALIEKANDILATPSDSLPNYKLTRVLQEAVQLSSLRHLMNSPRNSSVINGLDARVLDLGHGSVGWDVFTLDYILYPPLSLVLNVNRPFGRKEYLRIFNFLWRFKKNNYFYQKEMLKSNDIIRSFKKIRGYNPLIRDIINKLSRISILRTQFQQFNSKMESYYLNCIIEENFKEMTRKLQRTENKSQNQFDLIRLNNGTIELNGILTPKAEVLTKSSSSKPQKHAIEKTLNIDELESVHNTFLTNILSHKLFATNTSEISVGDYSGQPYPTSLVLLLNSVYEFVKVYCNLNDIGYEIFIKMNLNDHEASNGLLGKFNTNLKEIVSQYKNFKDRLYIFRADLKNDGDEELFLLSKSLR

T3: Spc98p, without fluorescent protein tag (S. cerevisiae, UniProt P53540 1-846)
T3 sequence (looked up): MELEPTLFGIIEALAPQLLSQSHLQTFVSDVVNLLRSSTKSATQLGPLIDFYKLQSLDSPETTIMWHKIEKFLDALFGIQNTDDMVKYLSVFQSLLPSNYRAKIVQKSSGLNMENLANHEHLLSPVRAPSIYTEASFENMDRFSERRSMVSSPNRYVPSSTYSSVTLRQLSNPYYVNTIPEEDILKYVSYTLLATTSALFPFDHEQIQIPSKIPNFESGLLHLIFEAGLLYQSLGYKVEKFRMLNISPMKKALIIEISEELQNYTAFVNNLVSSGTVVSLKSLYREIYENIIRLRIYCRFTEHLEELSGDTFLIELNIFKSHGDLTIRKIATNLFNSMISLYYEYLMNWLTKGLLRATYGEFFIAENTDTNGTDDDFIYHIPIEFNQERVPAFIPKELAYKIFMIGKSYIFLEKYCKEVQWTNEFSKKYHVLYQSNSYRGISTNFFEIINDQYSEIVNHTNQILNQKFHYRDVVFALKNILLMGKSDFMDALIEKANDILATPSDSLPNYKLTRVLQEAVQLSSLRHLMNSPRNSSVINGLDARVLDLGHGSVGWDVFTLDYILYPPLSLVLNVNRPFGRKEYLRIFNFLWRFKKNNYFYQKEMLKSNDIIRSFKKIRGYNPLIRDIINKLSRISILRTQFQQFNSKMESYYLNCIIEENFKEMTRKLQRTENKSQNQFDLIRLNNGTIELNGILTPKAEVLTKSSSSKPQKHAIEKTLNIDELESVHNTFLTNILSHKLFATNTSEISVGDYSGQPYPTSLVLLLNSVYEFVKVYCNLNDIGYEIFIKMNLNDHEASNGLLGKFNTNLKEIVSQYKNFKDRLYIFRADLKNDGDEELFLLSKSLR

B1: Spc97p with YFP on its N-terminus (of γ-TuSC:YFPSpc97p) (natural protein, S. cerevisiae, UniProt P38863 1-823, looked up)
chain: MEIKEVDDRAELLRYTNNIPLLGKLVNHQPLWSTNPKLKSFSLEKISAPDQRRVQEALVVKDLLNVLIGLEGTYIRYFNDYEPSDPETPIEFKIAKKMDPSFKTFSRRIVRYGKQYMILTRAYEKWSDTSFGMVLQRFAYEIRRFLEDVYLKTLVERLERDFNKVPNFSIRELEQIINETEVNKQMELLYNIYEEIFREIEERRTNQSSQEDFNNFMDSMKNESSLHLRLMVAFDTTVYPVPKGGAILKIFQQKILENLGDRSSVMFLKKLLNNISQDYCTMLYEWLTQGILNDPYQEFMTYDDLEGKTDNIFDTRDRAWDTQYFIRKDVLLRDCDSEEDKNLLFKMLRTGILLKVVRASLQIPTIPSNSSDITIQEINDFADLMEGSNLELYVDKCYSRANEIFLKLFFQGYDLINVLKHLQQIFLGYQSGHNVLKFLTKNMGELTKHYRNDNNANYDKLLQNFELERQSENPNNLMRQLLMIQFDTETLPQVLSHYLQIYPEVPENNSANDDSDPLMHANNFKNMNAILFDELSKERTGAYHGSNLELYTPKSAIYHLKFDINIPYPLNIIISRTCMIKYQIILRYQLVLQYHSRLLDETWMDLNKTPSWKYRGYSHTVKRRIVRATRVLHAKMNHFIKTIMEYFNQNVIDKEVYSLEKCYRNPTLAVAIQNELEGGLTNIMTNRCLSDLIPLQLQIFDIVYKFCKFIKSMRAKLCQLDPVLYEKHKSGMMKTLNEGYRTNNGGQEDVGYQEDAALELIQKLIEYISNASSIFRKCLINFTQELSTEKFDFYDSSSVDAAGIERVLYSIVPPRSASASSQR
B2: Spc97p, without fluorescent protein tag (natural protein, S. cerevisiae, UniProt P38863 1-823, looked up)
chain: MEIKEVDDRAELLRYTNNIPLLGKLVNHQPLWSTNPKLKSFSLEKISAPDQRRVQEALVVKDLLNVLIGLEGTYIRYFNDYEPSDPETPIEFKIAKKMDPSFKTFSRRIVRYGKQYMILTRAYEKWSDTSFGMVLQRFAYEIRRFLEDVYLKTLVERLERDFNKVPNFSIRELEQIINETEVNKQMELLYNIYEEIFREIEERRTNQSSQEDFNNFMDSMKNESSLHLRLMVAFDTTVYPVPKGGAILKIFQQKILENLGDRSSVMFLKKLLNNISQDYCTMLYEWLTQGILNDPYQEFMTYDDLEGKTDNIFDTRDRAWDTQYFIRKDVLLRDCDSEEDKNLLFKMLRTGILLKVVRASLQIPTIPSNSSDITIQEINDFADLMEGSNLELYVDKCYSRANEIFLKLFFQGYDLINVLKHLQQIFLGYQSGHNVLKFLTKNMGELTKHYRNDNNANYDKLLQNFELERQSENPNNLMRQLLMIQFDTETLPQVLSHYLQIYPEVPENNSANDDSDPLMHANNFKNMNAILFDELSKERTGAYHGSNLELYTPKSAIYHLKFDINIPYPLNIIISRTCMIKYQIILRYQLVLQYHSRLLDETWMDLNKTPSWKYRGYSHTVKRRIVRATRVLHAKMNHFIKTIMEYFNQNVIDKEVYSLEKCYRNPTLAVAIQNELEGGLTNIMTNRCLSDLIPLQLQIFDIVYKFCKFIKSMRAKLCQLDPVLYEKHKSGMMKTLNEGYRTNNGGQEDVGYQEDAALELIQKLIEYISNASSIFRKCLINFTQELSTEKFDFYDSSSVDAAGIERVLYSIVPPRSASASSQR
B3: Spc97p with YFP on its C-terminus (of γ-TuSC:Spc97pYFP) (natural protein, S. cerevisiae, UniProt P38863 1-823, looked up)
chain: MEIKEVDDRAELLRYTNNIPLLGKLVNHQPLWSTNPKLKSFSLEKISAPDQRRVQEALVVKDLLNVLIGLEGTYIRYFNDYEPSDPETPIEFKIAKKMDPSFKTFSRRIVRYGKQYMILTRAYEKWSDTSFGMVLQRFAYEIRRFLEDVYLKTLVERLERDFNKVPNFSIRELEQIINETEVNKQMELLYNIYEEIFREIEERRTNQSSQEDFNNFMDSMKNESSLHLRLMVAFDTTVYPVPKGGAILKIFQQKILENLGDRSSVMFLKKLLNNISQDYCTMLYEWLTQGILNDPYQEFMTYDDLEGKTDNIFDTRDRAWDTQYFIRKDVLLRDCDSEEDKNLLFKMLRTGILLKVVRASLQIPTIPSNSSDITIQEINDFADLMEGSNLELYVDKCYSRANEIFLKLFFQGYDLINVLKHLQQIFLGYQSGHNVLKFLTKNMGELTKHYRNDNNANYDKLLQNFELERQSENPNNLMRQLLMIQFDTETLPQVLSHYLQIYPEVPENNSANDDSDPLMHANNFKNMNAILFDELSKERTGAYHGSNLELYTPKSAIYHLKFDINIPYPLNIIISRTCMIKYQIILRYQLVLQYHSRLLDETWMDLNKTPSWKYRGYSHTVKRRIVRATRVLHAKMNHFIKTIMEYFNQNVIDKEVYSLEKCYRNPTLAVAIQNELEGGLTNIMTNRCLSDLIPLQLQIFDIVYKFCKFIKSMRAKLCQLDPVLYEKHKSGMMKTLNEGYRTNNGGQEDVGYQEDAALELIQKLIEYISNASSIFRKCLINFTQELSTEKFDFYDSSSVDAAGIERVLYSIVPPRSASASSQR

Key:
Assay in all cases: co-purification, SDS-PAGE with band densitometry
[1] = biological target: T1, Spc98p with CFP on its N-terminus (of …)
[2] = biological target: T2, Spc98p with CFP on its C-terminus (of …)
[3] = biological target: B1
[4] = biological target: T3, Spc98p, without fluorescent protein tag
[5] = biological target: B3
[6] = biological target: B2

Binder | stoichiometry N [1] | stoichiometry N [2] | stoichiometry N [3] | stoichiometry N [4] | stoichiometry N [5] | stoichiometry N [6]
γ-tubulin (Tub4p), His-tagged, as in the fluorescent-protein-tagged γ-TuSC constructs (natural protein, S. cerevisiae, UniProt P53378 1-473, looked up) MGGEIITLQAGQCGNHVGKFLWSQLAKEHAIGTDGLSQLPDSSTERDDDTKPFFRENSRNKFTPRAIMMDSEPSVIADVENTFRGFFDPRNTWVASDGASAGNSWANGYDIGTRNQDDILNKIDKEIDSTDNFEGFQLLHSVAGGTGSGLGSNLLEALCDRYPKKILTTYSVFPARSSEVVVQSYNTILALRRLIEDSDATVVFDNASLLNISGKVFRNPNIDLQHTNQLISTIISSVTNSIRFPSYMYSSMSSIYSTLIPSPELHFLSPSFTPFTSDYIHDDIAHKGHSSYDVMLDLLDPSNSLVSTAMNNPTYFNVYNTIIGNVEPRQISRAMTKLQQRIKFPSWSSSAMHVNIGRRSPYLPLQPNENEVSGMMLSNMSTVVNVFENACNTFDKVFAKGAFLNNYNVGDLFQSMQNVQDEFAESREVVQSLMEDYVAAEQDSYLDDVLVDDENMVGELEEDLDADGDHKLV | 2 | 2 | 2 | 2 | 2 | 2
B1 |  |  |  | 1 |  | 
B2 | 1 | 1 |  | 1 |  | 
γ-tubulin (Tub4p), His-tagged with the longer tag linker, as in the γ-TuSC without fluorescent protein tag (natural protein, S. cerevisiae, UniProt P53378 1-473, looked up) MGGEIITLQAGQCGNHVGKFLWSQLAKEHAIGTDGLSQLPDSSTERDDDTKPFFRENSRNKFTPRAIMMDSEPSVIADVENTFRGFFDPRNTWVASDGASAGNSWANGYDIGTRNQDDILNKIDKEIDSTDNFEGFQLLHSVAGGTGSGLGSNLLEALCDRYPKKILTTYSVFPARSSEVVVQSYNTILALRRLIEDSDATVVFDNASLLNISGKVFRNPNIDLQHTNQLISTIISSVTNSIRFPSYMYSSMSSIYSTLIPSPELHFLSPSFTPFTSDYIHDDIAHKGHSSYDVMLDLLDPSNSLVSTAMNNPTYFNVYNTIIGNVEPRQISRAMTKLQQRIKFPSWSSSAMHVNIGRRSPYLPLQPNENEVSGMMLSNMSTVVNVFENACNTFDKVFAKGAFLNNYNVGDLFQSMQNVQDEFAESREVVQSLMEDYVAAEQDSYLDDVLVDDENMVGELEEDLDADGDHKLV |  |  |  | 2 |  | 2
B3 |  |  |  | 1 |  | 

Source: article PMC2793330 (Journal of structural biology, 2009)
